Data set [1] has as its target T1, Srs2ΔC (Srs2 1-898) (Saccharomyces cerevisiae? (budding …, UniProt P12954 1-898)). Briefly: competition; FITC-3' overhang competitor releasing 50% of Cy5-ssDNA (N1) from 150 nM Srs2ΔC; 30 mM Tris pH 7.5, 1 mM DTT, 0.1 mg/ml BSA, 100 mM KCl, 3 nM DNA, 30 °C 10 min; 7% native PAGE in 0.5x TBE. As to conditions: protein: recombinant; tags: His9 (pull-down section says His6); label: fluorescein (FITC), end label.

For data set [2], the target named is T1, Srs2ΔC (Srs2 1-898). In words: EMSA; much higher affinity than other substrates; 3 nM DNA; 30 mM Tris pH 7.5, 1 mM DTT, 0.1 mg/ml BSA, 100 mM KCl, 3 nM DNA, 30 °C 10 min; 7% native PAGE in 0.5x TBE. As to conditions: protein: recombinant, tags: His9 (pull-down section says His6), label: fluorescent dye (fluorescein or Cy5), end label.
Data set [3] deals with T1, Srs2ΔC (Srs2 1-898). In words: competition; FITC-ssDNA competitor against Cy5-ssDNA with 150 nM Srs2ΔC; value derived from text: 3 times higher than the 5 nM of 3' overhang; 30 mM Tris pH 7.5, 1 mM DTT, 0.1 mg/ml BSA, 100 mM KCl, 3 nM DNA, 30 °C 10 min; 7% native PAGE in 0.5x TBE. The note with it: protein: recombinant; tags: His9 (pull-down section says His6); label: fluorescein or Cy5, end label; single strand.

T1 sequence (P12954 1-898, stated change not applied): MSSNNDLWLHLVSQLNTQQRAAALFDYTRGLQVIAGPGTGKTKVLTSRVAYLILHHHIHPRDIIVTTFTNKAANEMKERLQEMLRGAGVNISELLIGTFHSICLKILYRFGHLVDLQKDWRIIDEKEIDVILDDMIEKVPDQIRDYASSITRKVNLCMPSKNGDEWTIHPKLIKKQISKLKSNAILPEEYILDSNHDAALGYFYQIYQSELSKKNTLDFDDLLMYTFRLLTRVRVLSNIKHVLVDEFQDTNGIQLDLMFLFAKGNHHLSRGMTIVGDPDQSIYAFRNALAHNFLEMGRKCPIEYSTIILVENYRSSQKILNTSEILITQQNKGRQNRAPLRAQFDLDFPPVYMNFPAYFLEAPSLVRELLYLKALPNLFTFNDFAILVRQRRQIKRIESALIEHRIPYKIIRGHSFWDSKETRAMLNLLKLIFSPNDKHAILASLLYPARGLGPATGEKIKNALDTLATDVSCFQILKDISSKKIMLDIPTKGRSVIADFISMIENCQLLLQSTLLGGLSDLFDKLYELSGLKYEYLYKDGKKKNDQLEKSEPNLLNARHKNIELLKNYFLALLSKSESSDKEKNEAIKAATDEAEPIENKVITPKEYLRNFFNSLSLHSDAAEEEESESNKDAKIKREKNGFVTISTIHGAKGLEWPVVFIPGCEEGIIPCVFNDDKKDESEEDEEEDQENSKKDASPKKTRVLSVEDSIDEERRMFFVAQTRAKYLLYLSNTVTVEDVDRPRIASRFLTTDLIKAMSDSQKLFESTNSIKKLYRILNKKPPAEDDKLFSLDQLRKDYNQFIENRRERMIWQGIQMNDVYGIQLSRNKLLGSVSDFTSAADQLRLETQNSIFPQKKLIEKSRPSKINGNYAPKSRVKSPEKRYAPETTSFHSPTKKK

B1: 3' overhang (mixed)
DNA 1: AGCTACCATGCCTGCACGAATTAAGCAATTCGTAATCATGGTCATAGCT
DNA 2: AATTCGTGCAGGCATGGTAGCT
For the molecule B1, the IC50 (in general, the concentration needed to halve the response being measured) in data set [1] is roughly 5 nM.

B2: 5' flap (fork with leading strand) (structured_DNA)
DNA 1: AGCTACCATGCCTGCACGAATTAAGCAATTCGTAATCATGGTCATAGCT
DNA 2: AGCTATGACCATGATTACGAATTGCTT
DNA 3: GATGTCAAGCAGTCCTAAGGAATTCGTGCAGGCATGGTAGCT
In the case of B2, the binding result in data set [2] (5' flap) was “binds”.

B3: 5' overhang (mixed)
DNA 1: AGCTACCATGCCTGCACGAATTAAGCAATTCGTAATCATGGTCATAGCT
DNA 2: AGCTATGACCATGATTACGAATTGCTT
For the molecule B3, the binding result in data set [2] is listed as “binds”.

B4: ssDNA (ssDNA)
DNA: AGCTACCATGCCTGCACGAATTAAGCAATTCGTAATCATGGTCATAGCT
Take B4: the IC50 in data set [3] is roughly 15 nM.

The values are drawn from article PMC3484393, “Unwinding of synthetic replication and recombination substrates by Srs2”.
